Experimental data from patent US20160200799A1.

B1: Group 58 representative clone F083-307, Fab-cp3-type antibody (Fab, V domains shown)
VH: QVQLQQSGADVKKPGSSVKVSCKASGGTFGNYAISWVRQAPGQGLEWMGGITPIFGPANYAQRFQGRVTISADISTRTAYMELSSLRSEDTAIYYCARHPTYYFGSAMEYWGQGTLVTVSS
VL: SYELTQPPSVSVAPGQTATITCGGDRIGTGPVHWYQQRPGRAPVLIIYGSTHRPSGIPERFSGSKSVNTATLSISGVGVGDEADYYCQVWDTSTAQPIVFGGGTKLTVLS
B2: Group 55 representative clone F083-305, Fab-cp3-type antibody (Fab, V domains shown)
VH: EVQLVESGAEVKKPGSSVKVSCKASGSIFSNYAISWVRQAPGQGLEWMGGIVPMFGTTRFAQKFQGRVTITADESRSTAYMELNNLISEDTAVYYCARAPLIYNWYFDLWGRGTLVTVSS
VL: EIVLTQSPSFVSASVGDRVSITCRASQGISSWLAWYQQKPGKAPRLLIYGASNLQSGVPSRFSGSGSGTDYTLTINSLQPEDFATYYCQQARTFPVTFGQGTKLEIK
B3: Group 56 representative clone F083-318, Fab-cp3-type antibody (Fab, V domains shown)
VH: EVQLVQSGAEVKKPGSSVKVSCQASGSIFSNYAINWVRQAPGQGLEWMGGIVPIFGTTRFAQKFQGRLTITADEPRSTAYMELNNLISEDTAVYYCARAPLIYNWYYDLWGRGTLVTVSS
VL: EIVLTQSPSSLSASVGDRVTITCRASQGISNYLAWYQQKPGKVPKLLIYAASTLQSGVPSRFSGSGSGTDFTLTISSLQPEDVATYYCQKYNSAPHTFGPGTKVDIK
B4: Group 44 representative clone F081-008, Fab-PP-type antibody (Fab, V domains shown)
VH: QVQLVQSGAEVKKPGSSVKVSCKASGGTFSSFSTYTISWVRQAPGQGLEWMGRSIPLLGITNYAQKFQGRVTITADISTSTAYMELSSLRSEDTAVYYCARYQSSDYYNSEYFQHWGQGTLVTVSS
VL: EIVLTQSPGTLSLSLGERVTLSCRASQNVGTNYLAWYQQKPGQAPRLLIYGASSRATGVPDRFSGSGSGTDFTLTISRLAPEDFAVYYCQQYSSSPLTFGGGTKLEIK
B5: Group 62 representative clone F083-349, Fab-cp3-type antibody (Fab, V domains shown)
VH: QVQLVQSGAEVRKPGSSVKVSCKASGVIFIKFAISWVRQAPGQGLEWMGGIIPMFGTTNYAQKFQGRVTITADGSTNTVYMELSSLTSEDTAVYYCAKEEGYYYGSGPLDSWGQGTLVTVSS
VL: DIVMTQSPDFLSVSLGERVTINCKSSQTVLNRSNNKNYLAWYQKKPGQPPRLLLYWSSTRESGVPDRFSGSGSETDFALTITNLQAEDLAVYFCQQFYDMPVTFGGGTKLEIK
B6: Group 57 representative clone F083-103, Fab-cp3-type antibody (Fab, V domains shown)
VH: QVQLQQSGADVKKAGSSVKVSCKASGRTFGNYAISWVRQAPGQGLEWMGGITPIFGAANYAQKFQGRVTISADLSTRMVYMDLSSLRSDDTAFYYCAGHPTYHYGSAMDYWGQGTLVTVSS
VL: QSVLTQPPSVSAAPGQKVTITCSGSSSNIGNNYVSWYQQLPGTAPKLLISEGSNRPSGIPDRFSGSKSGTSATLGITGLQTGDEATYYCATWDDSLSVVLFGGGTRLTVLS
B7: Group 59 representative clone F083-351, Fab-cp3-type antibody (Fab, V domains shown)
VH: QVQLVQSGADVKKAGSSVKVSCKASGRTFGNYAISWVRQAPGQGLEWMGGITPIFGAANYAQKFQGRVTISADLSTRMVYMDLSSLRSDDTAFYYCAGHPMYHYGSAMDYWGQGTLVTVSS
VL: QSVLTQPPSASGTPGQRVSISCFGSRSNVGSSSVNWYQQLPGRAPKLLIQRNDQRPSGVPDRFSGSKSGTSASLAISGLQSDDESTYYCAAWDDSVKSVVFGGGTQLTVLG

Assays:
[1] = target: Influenza virus A/California/7/2009pdm (H1N1pdm) (Influenza A virus A/California/7/2009pdm (H1N1pdm)); test: ELISA on coated viral particles
[2] = target: Influenza virus A/Panama/2007/1999 (H3N2) (Influenza A virus A/Panama/2007/1999 (H3N2)); test: ELISA on coated viral particles
[3] = target: Influenza virus A/Brisbane/59/2007 (H1N1) (Influenza A virus A/Brisbane/59/2007 (H1N1)); test: ELISA on coated viral particles
[4] = target: Influenza virus A/New Caledonia/20/1999 (H1N1) (Influenza A virus A/New Caledonia/20/1999 (H1N1)); test: ELISA on coated viral particles
[5] = target: Influenza virus A/California/7/2009pdm (H1N1pdm) (Influenza A virus A/California/7/2009pdm (H1N1pdm)); test: cell-based or functional assay
[6] = target: Influenza virus A/Panama/2007/1999 (H3N2) (Influenza A virus A/Panama/2007/1999 (H3N2)); test: cell-based or functional assay
[7] = target: Influenza virus A/Indonesia/5/2005/PR8-IBCDC-RG2 (H5N1) (Influenza A virus A/Indonesia/5/2005/PR8-IBCDC-RG2 (H5N1)); test: cell-based or functional assay
[8] = target: Influenza virus A/Brisbane/59/2007 (H1N1) (Influenza A virus A/Brisbane/59/2007 (H1N1)); test: cell-based or functional assay
[9] = target: Influenza virus A/Suita/1/2009pdm (H1N1 2009 pandemic) (Influenza A virus A/Suita/1/2009pdm (H1N1pdm)); test: cell-based or functional assay

| Binder | Binding activity (absorbance at 492 nm) [1] | Binding activity (absorbance at 492 nm) [2] | Binding activity (absorbance at 492 nm) [3] | Binding activity (absorbance at 492 nm) [4] | also measured |
| --- | --- | --- | --- | --- | --- |
| B1 | 2.37 | 0.19 | 3.04 | 3.3 | – |
| B2 | 1.29 | 0.15 | 2.88 | 3.07 | – |
| B3 | 0.71 | 0.16 | 2.85 | 3.01 | – |
| B4 | – | – | – | – | HI activity [5]: > 160 µg/mL; Neutralizing activity (%) at 100 µg/ml [6]: 3.4%; Neutralizing activity (%) at 250 µg/ml [6]: 15.8%; Neutralizing activity (%) at 100 µg/ml [7]: 48.8%; Neutralizing activity (%) at 250 µg/ml [7]: 56.5%; HI activity [8]: > 160 µg/mL; Neutralizing activity (%) at 100 µg/ml [8]: 100%; Neutralizing activity (%) at 250 µg/ml [8]: 100%; Neutralizing activity (%) at 100 µg/ml [9]: 95.3%; Neutralizing activity (%) at 250 µg/ml [9]: 97.7% |
| B5 | 2.79 | 0.15 | 2.93 | 3.17 | – |
| B6 | 1.82 | 0.16 | 2.39 | 2.43 | – |
| B7 | 2.62 | 0.21 | 3.09 | 3.21 | – |
